In article PMC9224634, “Noninvasive Mapping of Angiotensin Converting Enzyme-2 in Pigeons Using Micro Positron Emission Tomography” (Life, 2022):

What was measured:
ACE2 [1] = test: in vivo; settings: female, iv, 15 MBq
Protocol: Injection route: Chloral hydrate 10% was used for intramuscular anesthesia.
Micro PET/CT imaging: Four healthy pigeons (female) were injected with 15 MBq ^68Ga-HZ20 through the pterygoid vein, and then dynamic imaging was performed for 40 min to observe the dynamic distribution of the probe in the body. The images were acquired for 30 min, 40 min and 60 min, with a single PET scan time of 600 s. The Avator software was used to display the images, outline the region of interest for the main organs, record the maximum standard uptake values for the outlined areas, and calculate the dynamic changes in SUVmax for different organs. At the end of the 60 min imaging, the pigeons were euthanized and the main organs were obtained for in vitro imaging.

ACE2 [2] = biological target: ACE2; set-up: method as in earlier work; settings: ACE2-specific peptide inhibitor; ref 10 (Huang et al.); cited from earlier work
ACE2 [3] = biological target: ACE2; set-up: method as in PMID 34174177; settings: cited from earlier work

With `CC(C)C[C@@H]1NC(=O)[C@@H]2CCCN2C(=O)[C@H](CO)NC(=O)[C@@H](NC(=O)[C@H](Cc2c[nH]cn2)NC(=O)[C@H](CO)NC(=O)[C@H](Cc2ccc(O)cc2)NC(=O)[C@H](CC(=O)O)NC(=O)CNC(=O)CN2CCN(CC(=O)O)CCN(CC(=O)O)CCN(CC(=O)O)CC2)CSSC[C@@H](C(=O)N[C@H](C(=O)N[C@@H](Cc2ccc(O)cc2)C(=O)N2CCC[C@H]2C(=O)N[C@@H](CC(=O)O)C(=O)N2CCC[C@H]2C(=O)N[C@@H](CCC(=O)O)C(=O)NCC(=O)NCC(=O)NCC(N)=O)[C@@H](C)O)NC(=O)[C@H](CCCCN)NC(=O)[C@H](Cc2c[nH]c3ccccc23)NC(=O)[C@H](Cc2c[nH]c3ccccc23)NC(=O)[C@@H]2CCCN2C(=O)[C@H](Cc2ccc(O)cc2)NC(=O)[C@H](Cc2ccc(O)cc2)NC(=O)[C@H](CCCNC(=N)N)NC1=O` [68Ga-HZ20, metal not drawn] the SUV at 40 min (ACE2 [1]; SUVmax heart, final) was 0.84 SUV, the SUV at 0 h (ACE2 [1]; SUVmax heart, initial) was 3.08 SUV and the SUV at 20 min (ACE2 [1]; SUVmax kidney) was 6.95 SUV. The SUV at 20 min (ACE2 [1]; SUVmax lung) was 1.11 SUV, the SUV at 1 h (ACE2 [1]; kidney uptake (SUV)) was 3.05 SUV and the SUV at 1 h (ACE2 [1]; liver uptake (SUV)) was 0.51 SUV. For the same compound, the SUV at 40 min (ACE2 [1]; liver uptake (SUVmax)) was 2.51 SUV, the SUV (ACE2 [1]; liver uptake (SUVmax), initial) was 0.91 SUV and the SUV at 1 h (ACE2 [1]; lung uptake (SUV)) was 0.41 SUV. The SUV at 1 h (ACE2 [1]; stomach uptake (SUV)) was 0.52 SUV and the SUV at 40 min (ACE2 [1]; stomach uptake (SUVmax), peak) was 0.63 SUV.
For “Ac-GDYSHCSPLRYYPWWKCTYPDPEGGG-NH2 (disulfide) [DX600]”, the Ki (ACE2 [2]) is listed as 2.8 nM and the Kd (ACE2 [3]) is listed as 98.7 nM.
